A word on the Kd: it is the concentration at which binding is half-saturated.

The target of one assay is BPTF bromodomain (Homo sapiens, UniProt Q12830). As to conditions: cited from earlier work.
For the next assay, the target named is PfGCN5 bromodomain (Plasmodium falciparum, UniProt Q8IB67). Put plainly: 1H-15N HSQC NMR titration with PfGCN5. It counts as binding. As to conditions: 1H-15N HSQC titration (Figure S14); read-out: Kd PfGCN5. From the text: To cross-validate our findings, ^1H-^15N HSQC NMR was used to further examine the binding mode of 9 to PfGCN5 in the presence and absence of known ligands. The ^1H-^15N HSQC spectrum of PfGCN5 is unassigned. For ease of spectral interpretation, all resonances that were distinctly visible were assigned as 1-64. Fragment 9, GSK4027, and the acetylated peptide H2A.Z II K7,13ac were titrated against PfGCN5. At the highest ligand concentration, resonances with Δδ > x^− + 0.60*s, where x^− is the mean and s is the standard deviation at the highest concentration, were defined as significant. The correction factor of 0.60 is to compensate for only 60% of the resonances being usable for analysis. Titration of 9 with PfGCN5 gave linear and non-linear dose-dependent chemical shift perturbations. Of the five resonances with non-linear movement, only one (10) was considered to have significant movement. […] This affinity with the non-fluorine-labeled protein is similar but higher than the affinity determined by PrOF NMR. […]
^1H-^15N SOFAST HSQC.^1H-^15N SOFAST HSQC spectra were obtained on a Bruker 600 MHz Avance NEO with a CryoProbe 5 mm TCI (^1H, ^13C, ^15N, ^2H) w/ Z-gradient using Bruker’s IBS_SOFAST.x method with 32 scans, 0.05 s acquisition time, and 0.2 s delay. […] Data were processed with nmrDraw, nmrPipe, and NFRAM Sparky. Δδ^1H-^15N was calculated using Equation (3). […]

Chain of PfGCN5 bromodomain (Q8IB67 entry or part of it): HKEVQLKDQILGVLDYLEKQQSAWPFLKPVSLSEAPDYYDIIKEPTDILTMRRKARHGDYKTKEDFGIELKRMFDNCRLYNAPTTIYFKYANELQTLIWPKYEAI

Take “H2A.Z II K7,13ac peptide N-terminal tail (from UniProt Q71UI9)”: the Kd with BPTF bromodomain was 310 µM. With “H2A.Z II K7,13ac: acetylated N-terminal tail peptide of a histone protein (AGGKAGKDSGKAKAK; acetyl-Lys7 and acetyl-Lys13 in mature numbering (UniProt K8 and K14); C-terminal amide expected from NovaSyn TGR resin) [reference compound]”, the Kd in the assay with PfGCN5 bromodomain was determined as 670 µM.

Source of the values: publication PMC7504435, “Combined Protein- and Ligand-Observed NMR Workflow to Screen Fragment Cocktails against Multiple Proteins: A Case Study Using Bromodomains” (Molecules, 2020).
